Results published in patent US20220177587A1, “METHODS AND USES OF VARIANT CD80 FUSION PROTEINS AND RELATED CONSTRUCTS” (Alpine Immune Sciences, Inc., priority 2018, published 2022).
Each block holds one molecule with its values, some of them ahead of it.

Assays:
[1] = target: T1, CD28 (Homo sapiens, UniProt P10747); assay: Flow binding to Jurkat/IL2 reporter cells (CD28); set-up: host or cells: Jurkat cells expressing an IL-2-luciferase reporter
Method: Binding of selected immunomodulatory fusion proteins to cognate binding partners was assessed. […] Cells were sorted in a Bio-Rad S3 Cell Sorter (Bio-Rad Corp., USA) to >98% purity. Jurkat/IL2 reporter cells, which endogenously express CD28, were used to detect binding to CD28.
For staining and analysis by flow cytometry, 100,000 cells of appropriate transfected cells were plated in 96-well round bottom plates. Cells were spun down and resuspended in staining buffer (phosphate buffered saline (PBS), 1% bovine serum albumin (BSA), and 0.1% sodium azide) for 20 minutes to block non-specific binding. […] Primary staining was performed on ice for 45 minutes, before washing cells in staining buffer twice. Phycoerythrin (PE)-conjugated anti-human Fc (Jackson ImmunoResearch, USA) was diluted 1:150, added to cells and incubated another 30 minutes on ice. Cells were then washed twice with 150 μL/well stain buffer, fixed in 2% formaldehyde/PBS, and analyzed on Intellicyt flow cytometer (Intellicyt Corp., USA). PE Mean Fluorescence Intensity (MFI) was calculated for each cell type with FlowJo Version 10 software (FlowJo LLC, USA).
Binding assays were carried out to assess the specificity and affinity of multivalent proteins to cell-expressed CTLA-4, CD28, and PD-L1 counter structures.
The EC50 for binding also was determined.

[2] = target: huCTLA4 (Homo sapiens, UniProt P16410); assay: Flow binding to CHO cells stably expressing CTLA4; set-up: huCTLA4 and huPD-L1, full-length mammalian surface expression constructs were generated; expressed in transfected cells; host or cells: CHO cells, lentiviral transduction, sorted to >98% purity; conditions: for CTLA4 MFI at 33.3 nM: CHO cells stably expressing CTLA4
huCTLA4, sequence (P16410 36-223): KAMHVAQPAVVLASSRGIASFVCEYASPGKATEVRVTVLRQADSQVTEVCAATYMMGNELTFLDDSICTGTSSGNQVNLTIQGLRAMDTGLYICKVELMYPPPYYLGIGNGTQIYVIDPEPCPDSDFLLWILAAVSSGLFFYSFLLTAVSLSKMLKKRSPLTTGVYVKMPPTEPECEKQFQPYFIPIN
How it was run: (§1)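 Binding EC50 and PE mean fluorescence intensity derived by flow cytometry using PE-labelled anti-human Fc secondary. Target cells were CTLA4- or PD-L1-transfected CHO lines and CD28-expressing Jurkat/IL2 reporter cells, stained with fusion proteins on ice for 45 min following BSA blocking.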

[3] = target: huPD-L1 (Homo sapiens, UniProt Q9NZQ7); assay: Flow binding to CHO cells stably expressing PD-L1; set-up: huCTLA4 and huPD-L1, full-length mammalian surface expression constructs were generated; expressed in transfected cells; host or cells: CHO cells, lentiviral transduction, sorted to >98% purity; conditions: for PD-L1 MFI at 33.3 nM: CHO cells stably expressing PD-L1
huPD-L1, sequence (Q9NZQ7 19-290): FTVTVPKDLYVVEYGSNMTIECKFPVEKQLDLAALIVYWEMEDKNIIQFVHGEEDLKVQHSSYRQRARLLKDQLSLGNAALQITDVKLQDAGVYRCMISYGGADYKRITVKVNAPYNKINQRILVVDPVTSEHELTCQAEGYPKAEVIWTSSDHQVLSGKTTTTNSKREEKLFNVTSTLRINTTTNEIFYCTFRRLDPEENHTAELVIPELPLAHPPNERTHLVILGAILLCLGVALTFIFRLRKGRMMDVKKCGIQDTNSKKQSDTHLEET
How it was run: as §1

[4] = target: T1, CD28; assay: Jurkat/IL2 + CHO/OKT3 +/- PD-L1 reporter assay: PD-L1-dependent CD28 costimulation; format: cell-based; set-up: host or cells: Jurkat cells expressing an IL-2-luciferase reporter; conditions: Jurkat/IL2 + CHO/OKT3/PD-L1
How it was run: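 Readout is relative luminescence from lysed cocultures: test protein given 15 min at room temperature to Jurkat cells before adding CHO artificial APCs displaying OKT3 alone or OKT3 plus PD-L1, then 5 h at 37 °C, 5% CO2.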

[5] = Table E4, 33.3 nM, Jurkat cells (CD28)
[6] = Table E4, MFI ratio to WT CD80 ECD-Fc (R&D) at 33.3 nM
[7] = Table E4, 33.3 nM variant CD80 IgV-Fc
[8] = Table E4, binding to PD-L1 compared to binding to CD28
[9] = Table E19, Jurkats (CD28), 33.3 nM
[10] = Table E11, 33.3 nM, listed as WT CD80 ECD-Fc = 1.0
[11] = Table E23, CD80 IgV-Fc (inert) at 33.3 nM, Jurkat (CD28)
[12] = Table E23, CD80 IgV-Fc (inert) at 33.3 nM

B2: E35D/L85Q/K93I/E95V/L97Q (protein)
chain: VIHVTKEVKEVATLSCGHNVSVEELAQTRIYWQKDKKMVLTMMSGDMNIWPEYKNRTIFDITNNLSIVILALRPSDEGTYECVVQKYEKDAFTRVHQAEVTLSVKAD
CD28 MFI at 33.3 nM [1, 5]: 400 | CD28 Fold change to WT CD80 [1, 6]: 0.02 | CTLA4 MFI at 33.3 nM [2, 7]: 246401 | CTLA4 Fold change to WT CD80 [2, 6]: 1.57 | PD-L1 MFI at 33.3 nM ([3]; Table E4, 33.3 nM): 19880 | PD-L1 Fold change to WT CD80 [3, 6]: 1.67 | Ratio of PDL1:CD28 [3, 8]: 50

B6: E35D/D46V/M47V/V68M/K89N (protein)
chain: VIHVTKEVKEVATLSCGHNVSVEELAQTRIYWQKDKKMVLTMMSGVVNIWPEYKNRTIFDITNNLSIMILALRPSDEGTYECVVLKYENDAFKREHLAEVTLSVKAD
CD28 MFI at 33.3 nM [1, 9]: 2119 | Relative Luciferase Units (RLU), CD80 Conc 5.0 nM ([4]; Table E21, CD80 Conc 5.0 nM): 817 RLU | PD-L1 MFI at 33.3 nM ([3]; Table E19, 33.3 nM): 21603

B8: A26E/E35D/V68M/A71G (protein)
chain: VIHVTKEVKEVATLSCGHNVSVEELEQTRIYWQKDKKMVLTMMSGDMNIWPEYKNRTIFDITNNLSIMILGLRPSDEGTYECVVLKYEKDAFKREHLAEVTLSVKAD
CD28 MFI at 33.3 nM ([1]; Table E20, Jurkats (CD28), 33.3 nM): 135 | Relative Luciferase Units (RLU), CD80 Conc 5.0 nM ([4]; Table E22, CD80 Conc 5.0 nM): 839 RLU | PD-L1 MFI at 33.3 nM ([3]; Table E20, 33.3 nM): 12611

B10: H18Y/A26P/E35D/M47V/V68M/A71G (protein, UniProt P33681 35-288, looked up, variant H18Y A26P E35D M47V V68M A71G)
T-lymphocyte activation …: VIHVTKEVKEVATLSCGYNVSVEELPQTRIYWQKDKKMVLTMMSGDVNIWPEYKNRTIFDITNNLSIMILGLRPSDEGTYECVVLKYEKDAFKREHLAEVTLSVKADFPTPSISDFEIPTSNIRRIICSTSGGFPEPHLSWLENGEELNAINTTVSQDPETELYAVSSKLDFNMTTNHSFMCLIKYGHLRVNQTFNWNTTKQEHFPDNLLPSWAITLISVNGIFVICCLTYCFAPRCRERRRNERLRRESVRPV
CD28 MFI at 33.3 nM [1, 11]: 6911 | Relative Luciferase Units (RLU), CD80 Conc 5.0 nM ([4]; Table E24, 5.0 nM): 821 RLU | PD-L1 MFI at 33.3 nM [3, 12]: 51521

B11: H18Y/E35D/M47V/V68M/A71G (protein, UniProt P33681 35-288, looked up, variant H18Y E35D M47V V68M A71G)
T-lymphocyte activation …: VIHVTKEVKEVATLSCGYNVSVEELAQTRIYWQKDKKMVLTMMSGDVNIWPEYKNRTIFDITNNLSIMILGLRPSDEGTYECVVLKYEKDAFKREHLAEVTLSVKADFPTPSISDFEIPTSNIRRIICSTSGGFPEPHLSWLENGEELNAINTTVSQDPETELYAVSSKLDFNMTTNHSFMCLIKYGHLRVNQTFNWNTTKQEHFPDNLLPSWAITLISVNGIFVICCLTYCFAPRCRERRRNERLRRESVRPV
CD28 MFI at 33.3 nM [1, 11]: 3227 | Relative Luciferase Units (RLU), CD80 Conc 5.0 nM ([4]; Table E24, 5.0 nM): 963 RLU | PD-L1 MFI at 33.3 nM [3, 12]: 64919

B12: H18V/E35D/M47V/V68M/A71G/D90G (protein, UniProt P33681 35-288, looked up, variant H18V E35D M47V V68M A71G D90G)
T-lymphocyte activation …: VIHVTKEVKEVATLSCGVNVSVEELAQTRIYWQKDKKMVLTMMSGDVNIWPEYKNRTIFDITNNLSIMILGLRPSDEGTYECVVLKYEKGAFKREHLAEVTLSVKADFPTPSISDFEIPTSNIRRIICSTSGGFPEPHLSWLENGEELNAINTTVSQDPETELYAVSSKLDFNMTTNHSFMCLIKYGHLRVNQTFNWNTTKQEHFPDNLLPSWAITLISVNGIFVICCLTYCFAPRCRERRRNERLRRESVRPV
CD28 MFI at 33.3 nM [1, 11]: 2115 | Relative Luciferase Units (RLU), CD80 Conc 5.0 nM ([4]; Table E24, 5.0 nM): 854 RLU | PD-L1 MFI at 33.3 nM [3, 12]: 43588

B13: E35D/D46V/M47L/V68M/L85Q/E88D GS(G4S)3 (protein, UniProt P33681 35-288, looked up, variant E35D D46V M47L V68M L85Q E88D)
T-lymphocyte activation …: VIHVTKEVKEVATLSCGHNVSVEELAQTRIYWQKDKKMVLTMMSGVLNIWPEYKNRTIFDITNNLSIMILALRPSDEGTYECVVQKYDKDAFKREHLAEVTLSVKADFPTPSISDFEIPTSNIRRIICSTSGGFPEPHLSWLENGEELNAINTTVSQDPETELYAVSSKLDFNMTTNHSFMCLIKYGHLRVNQTFNWNTTKQEHFPDNLLPSWAITLISVNGIFVICCLTYCFAPRCRERRRNERLRRESVRPV
modifications: GS(G4S)3 linker
CD28 MFI at 33.3 nM ([1]; Table E25, linker variants, 33.3 nM, Jurkats (CD28)): 267 | Relative Luciferase Units (RLU), CD80 Conc 5.0 nM ([4]; Table E26, linker variants, 5.0 nM): 1592 RLU | PD-L1 MFI at 33.3 nM ([3]; Table E25, linker variants, 33.3 nM): 22596

Next, values leading:

CD28 MFI at 33.3 nM [1, 5]: 11736 | CD28 Fold change to WT CD80 [1, 6]: 0.65 | CTLA4 MFI at 33.3 nM [2, 7]: 807 | CTLA4 Fold change to WT CD80 [2, 6]: 0.01 | PD-L1 MFI at 33.3 nM ([3]; Table E4, 33.3 nM): 89775 | PD-L1 Fold change to WT CD80 [3, 6]: 7.56 | Ratio of PDL1:CD28 [3, 8]: 8
B1: E35D/M47V/N48KN68M/K89N (protein)
chain: VIHVTKEVKEVATLSCGHNVSVEELAQTRIYWQKDKKMVLTMMSGDVKIWPEYKNRTIFDITNNLSIMILALRPSDEGTYECVVLKYENDAFKREHLAEVTLSVKAD

CD28 MFI at 33.3 nM [1, 9]: 170 | CTLA4 MFI at 33.3 nM ([2]; Table E19, 33.3 nM): 4370
B3: N48K/K89N (protein)
chain: VIHVTKEVKEVATLSCGHNVSVEELAQTRIYWQKEKKMVLTMMSGDMKIWPEYKNRTIFDITNNLSIVILALRPSDEGTYECVVLKYENDAFKREHLAEVTLSVKAD

CD28 MFI at 33.3 nM [1, 9]: 88.1 | Relative Luciferase Units (RLU), CD80 Conc 5.0 nM ([4]; Table E21, CD80 Conc 5.0 nM): 416 RLU | PD-L1 MFI at 33.3 nM ([3]; Table E19, 33.3 nM): 5801
B4: M47L/L85Q (protein)
chain: VIHVTKEVKEVATLSCGHNVSVEELAQTRIYWQKEKKMVLTMMSGDLNIWPEYKNRTIFDITNNLSIVILALRPSDEGTYECVVQKYEKDAFKREHLAEVTLSVKAD

CD28 MFI at 33.3 nM [1, 9]: 35 | CTLA4 MFI at 33.3 nM ([2]; Table E19, 33.3 nM): 3002
B5: L85Q (protein)
chain: VIHVTKEVKEVATLSCGHNVSVEELAQTRIYWQKEKKMVLTMMSGDMNIWPEYKNRTIFDITNNLSIVILALRPSDEGTYECVVQKYEKDAFKREHLAEVTLSVKAD

CD28 Fold change to WT CD80 [1, 10]: 9.6 | CD28 MFI at 33.3 nM ([1]; Table E11, Jurkats (CD28), 33.3 nM): 302 | CTLA4 Fold change to WT CD80 [2, 10]: 9.5 | CTLA4 MFI at 33.3 nM ([2]; Table E11, 33.3 nM): 16604 | PD-L1 Fold change to WT CD80 [3, 10]: 442.1 | PD-L1 MFI at 33.3 nM ([3]; Table E11, 33.3 nM): 22770 | Ratio of PDL1:CD28 ([3]; Table E11, MFI at 33.3 nM): 75.4
B7: E35D/M47V/N48KN68M/A71G/L85M (protein)
chain: VIHVTKEVKEVATLSCGHNVSVEELAQTRIYWQKDKKMVLTMMSGDVKIWPEYKNRTIFDITNNLSIMILGLRPSDEGTYECVVMKYEKDAFKREHLAEVTLSVKAD

CD28 MFI at 33.3 nM ([1]; Table E14, Jurkats (CD28), 33.3 nM): 1400 | CTLA4 MFI at 33.3 nM ([2]; Table E14, 33.3 nM): 10332
B9: E35D/M47LN68M/A71G/L85Q/D90G (protein, UniProt P33681 35-288, looked up, variant E35D M47L V68M A71G L85Q D90G)
T-lymphocyte activation …: VIHVTKEVKEVATLSCGHNVSVEELAQTRIYWQKDKKMVLTMMSGDLNIWPEYKNRTIFDITNNLSIMILGLRPSDEGTYECVVQKYEKGAFKREHLAEVTLSVKADFPTPSISDFEIPTSNIRRIICSTSGGFPEPHLSWLENGEELNAINTTVSQDPETELYAVSSKLDFNMTTNHSFMCLIKYGHLRVNQTFNWNTTKQEHFPDNLLPSWAITLISVNGIFVICCLTYCFAPRCRERRRNERLRRESVRPV
